Starred links: 1 amine or outer side, 2 acyl side, 3 side chain; linkers in the order of their positions; H or OH if unused. Groups on a side chain read outwards from the residue. *: point of attachment. γGlu = O=C(O)[C@H](CCC(=O)[*:2])N[*:1]; Palmitoyl = CCCCCCCCCCCCCCCC(=O)*
B1: Compound 5: H-HSQGTFTSDYSKYLD-K(Hexadecanoyl-isoGlu)-RRAKDFIEWLLSA-NH2 (peptide)
peptide: HSQGTFTSDYSKYLDXRRAKDFIEWLLSA
HELM: PEPTIDE1{H.S.Q.G.T.F.T.S.D.Y.S.K.Y.L.D.K.R.R.A.K.D.F.I.E.W.L.L.S.A.[am]}|PEPTIDE2{[CCCCCCCCCCCCCCCC(=O)[*:2]].[gGlu]}$PEPTIDE1,PEPTIDE2,16:R3-2:R2$$$V2.0
SMILES: CCCCCCCCCCCCCCCC(=O)N[C@@H](CCC(=O)NCCCC[C@H](NC(=O)[C@H](CC(=O)O)NC(=O)[C@H](CC(C)C)NC(=O)[C@H](Cc1ccc(O)cc1)NC(=O)[C@H](CCCCN)NC(=O)[C@H](CO)NC(=O)[C@H](Cc1ccc(O)cc1)NC(=O)[C@H](CC(=O)O)NC(=O)[C@H](CO)NC(=O)[C@@H](NC(=O)[C@H](Cc1ccccc1)NC(=O)[C@@H](NC(=O)CNC(=O)[C@H](CCC(N)=O)NC(=O)[C@H](CO)NC(=O)[C@@H](N)Cc1c[nH]cn1)[C@@H](C)O)[C@@H](C)O)C(=O)N[C@@H](CCCNC(=N)N)C(=O)N[C@@H](CCCNC(=N)N)C(=O)N[C@@H](C)C(=O)N[C@@H](CCCCN)C(=O)N[C@@H](CC(=O)O)C(=O)N[C@@H](Cc1ccccc1)C(=O)N[C@H](C(=O)N[C@@H](CCC(=O)O)C(=O)N[C@@H](Cc1c[nH]c2ccccc12)C(=O)N[C@@H](CC(C)C)C(=O)N[C@@H](CC(C)C)C(=O)N[C@@H](CO)C(=O)N[C@@H](C)C(N)=O)[C@@H](C)CC)C(=O)O
B2: Compound 7: H-H-Aib-QGTFTSDYSKYLDE-K(Hexadecanoyl-isoGlu)-RAKDFIEWLLSA-NH2 (peptide)
peptide: HXQGTFTSDYSKYLDEXRAKDFIEWLLSA
HELM: PEPTIDE1{H.[Aib].Q.G.T.F.T.S.D.Y.S.K.Y.L.D.E.K.R.A.K.D.F.I.E.W.L.L.S.A.[am]}|PEPTIDE2{[CCCCCCCCCCCCCCCC(=O)[*:2]].[gGlu]}$PEPTIDE1,PEPTIDE2,17:R3-2:R2$$$V2.0
SMILES: CCCCCCCCCCCCCCCC(=O)N[C@@H](CCC(=O)NCCCC[C@H](NC(=O)[C@H](CCC(=O)O)NC(=O)[C@H](CC(=O)O)NC(=O)[C@H](CC(C)C)NC(=O)[C@H](Cc1ccc(O)cc1)NC(=O)[C@H](CCCCN)NC(=O)[C@H](CO)NC(=O)[C@H](Cc1ccc(O)cc1)NC(=O)[C@H](CC(=O)O)NC(=O)[C@H](CO)NC(=O)[C@@H](NC(=O)[C@H](Cc1ccccc1)NC(=O)[C@@H](NC(=O)CNC(=O)[C@H](CCC(N)=O)NC(=O)C(C)(C)NC(=O)[C@@H](N)Cc1c[nH]cn1)[C@@H](C)O)[C@@H](C)O)C(=O)N[C@@H](CCCNC(=N)N)C(=O)N[C@@H](C)C(=O)N[C@@H](CCCCN)C(=O)N[C@@H](CC(=O)O)C(=O)N[C@@H](Cc1ccccc1)C(=O)N[C@H](C(=O)N[C@@H](CCC(=O)O)C(=O)N[C@@H](Cc1c[nH]c2ccccc12)C(=O)N[C@@H](CC(C)C)C(=O)N[C@@H](CC(C)C)C(=O)N[C@@H](CO)C(=O)N[C@@H](C)C(N)=O)[C@@H](C)CC)C(=O)O
B3: Compound 2: H-HSQGTFTSDYSKYLDERRAKDFIEWL-K(Hexadecanoyl-isoGlu)-SA-NH2 (peptide)
peptide: HSQGTFTSDYSKYLDERRAKDFIEWLXSA
HELM: PEPTIDE1{H.S.Q.G.T.F.T.S.D.Y.S.K.Y.L.D.E.R.R.A.K.D.F.I.E.W.L.K.S.A.[am]}|PEPTIDE2{[CCCCCCCCCCCCCCCC(=O)[*:2]].[gGlu]}$PEPTIDE1,PEPTIDE2,27:R3-2:R2$$$V2.0
SMILES: CCCCCCCCCCCCCCCC(=O)N[C@@H](CCC(=O)NCCCC[C@H](NC(=O)[C@H](CC(C)C)NC(=O)[C@H](Cc1c[nH]c2ccccc12)NC(=O)[C@H](CCC(=O)O)NC(=O)[C@@H](NC(=O)[C@H](Cc1ccccc1)NC(=O)[C@H](CC(=O)O)NC(=O)[C@H](CCCCN)NC(=O)[C@H](C)NC(=O)[C@H](CCCNC(=N)N)NC(=O)[C@H](CCCNC(=N)N)NC(=O)[C@H](CCC(=O)O)NC(=O)[C@H](CC(=O)O)NC(=O)[C@H](CC(C)C)NC(=O)[C@H](Cc1ccc(O)cc1)NC(=O)[C@H](CCCCN)NC(=O)[C@H](CO)NC(=O)[C@H](Cc1ccc(O)cc1)NC(=O)[C@H](CC(=O)O)NC(=O)[C@H](CO)NC(=O)[C@@H](NC(=O)[C@H](Cc1ccccc1)NC(=O)[C@@H](NC(=O)CNC(=O)[C@H](CCC(N)=O)NC(=O)[C@H](CO)NC(=O)[C@@H](N)Cc1c[nH]cn1)[C@@H](C)O)[C@@H](C)O)[C@@H](C)CC)C(=O)N[C@@H](CO)C(=O)N[C@@H](C)C(N)=O)C(=O)O
B4: Compound 4: H-HSQGTFTSDYSKYLDERRAKDFIEWLL-K(Hexadecanoyl-isoGlu)-A-NH2 (peptide)
peptide: HSQGTFTSDYSKYLDERRAKDFIEWLLXA
HELM: PEPTIDE1{H.S.Q.G.T.F.T.S.D.Y.S.K.Y.L.D.E.R.R.A.K.D.F.I.E.W.L.L.K.A.[am]}|PEPTIDE2{[CCCCCCCCCCCCCCCC(=O)[*:2]].[gGlu]}$PEPTIDE1,PEPTIDE2,28:R3-2:R2$$$V2.0
SMILES: CCCCCCCCCCCCCCCC(=O)N[C@@H](CCC(=O)NCCCC[C@H](NC(=O)[C@H](CC(C)C)NC(=O)[C@H](CC(C)C)NC(=O)[C@H](Cc1c[nH]c2ccccc12)NC(=O)[C@H](CCC(=O)O)NC(=O)[C@@H](NC(=O)[C@H](Cc1ccccc1)NC(=O)[C@H](CC(=O)O)NC(=O)[C@H](CCCCN)NC(=O)[C@H](C)NC(=O)[C@H](CCCNC(=N)N)NC(=O)[C@H](CCCNC(=N)N)NC(=O)[C@H](CCC(=O)O)NC(=O)[C@H](CC(=O)O)NC(=O)[C@H](CC(C)C)NC(=O)[C@H](Cc1ccc(O)cc1)NC(=O)[C@H](CCCCN)NC(=O)[C@H](CO)NC(=O)[C@H](Cc1ccc(O)cc1)NC(=O)[C@H](CC(=O)O)NC(=O)[C@H](CO)NC(=O)[C@@H](NC(=O)[C@H](Cc1ccccc1)NC(=O)[C@@H](NC(=O)CNC(=O)[C@H](CCC(N)=O)NC(=O)[C@H](CO)NC(=O)[C@@H](N)Cc1c[nH]cn1)[C@@H](C)O)[C@@H](C)O)[C@@H](C)CC)C(=O)N[C@@H](C)C(N)=O)C(=O)O

Tests used:
[1] = target: human glucagon receptor (Glucagon-R) (human, UniProt P47871 26-477); experiment: cell-based or functional assay
[2] = target: human glucagon-like peptide 1 receptor (GLP-1 R) (human, UniProt P43220 24-463); experiment: cell-based or functional assay

Chain of human glucagon receptor (Glucagon-R) (P47871 26-477): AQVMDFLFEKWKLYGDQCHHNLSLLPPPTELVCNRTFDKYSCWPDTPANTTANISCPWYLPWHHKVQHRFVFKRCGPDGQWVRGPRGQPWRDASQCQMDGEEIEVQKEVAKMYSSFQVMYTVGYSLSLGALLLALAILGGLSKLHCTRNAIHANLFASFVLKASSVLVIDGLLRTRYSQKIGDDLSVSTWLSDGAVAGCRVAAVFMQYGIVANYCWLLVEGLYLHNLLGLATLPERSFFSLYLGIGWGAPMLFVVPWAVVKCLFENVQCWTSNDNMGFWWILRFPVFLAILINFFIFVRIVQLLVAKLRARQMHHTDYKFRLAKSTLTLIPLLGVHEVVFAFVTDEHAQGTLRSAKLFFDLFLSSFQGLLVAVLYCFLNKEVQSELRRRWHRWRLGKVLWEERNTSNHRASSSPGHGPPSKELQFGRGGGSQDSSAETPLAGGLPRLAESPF

Row | Binder | GluR EC50 (nM), cAMP formation in HEK293 cells expressing human Glucagon-R [1] [nM] | GLP-1R EC50 (nM), cAMP formation in HEK293 cells expressing human GLP-1-R [2] [nM]
1 | B1 | 0.19 | 0.35
2 | H-HSQGTFTSDYSKYLDEK([γGlu-Palmitoyl])RAKDFIEWLLSA-NH2 [Compound 6: H-HSQGTFTSDYSKYLDE-K(Hexadecanoyl-isoGlu)-RAKDFIEWLLSA-NH2] | – | 0.13
3 | B2 | 0.16 | 0.1
4 | B3 | 0.81 | 3.09
5 | HSQGTFTSDYSKYLDERRAXDFIEWLLSA (K(Hexadecanoyl-isoGlu) at position 20; C-terminal amide (NH2)) [Compound 3: H-HSQGTFTSDYSKYLDERRA-K(Hexadecanoyl-isoGlu)-DFIEWLLSA-NH2] | 0.6 | 0.64
6 | B4 | 0.25 | 0.31
